Measured values reported in patent publication US20070134720A1, “Method of detecting effect of controlling synoviolin activity” (priority 2003, published 2007).

Legend:
[1] = biological target: T1, synoviolin activity of ubiquitinating P4HA1 (Homo sapiens, UniProt Q86TM6); assay: Inhibition of ubiquitination activity using ELISA; type: biochemical; settings: anti-GST capture, anti-ubiquitin detection, OD 450 nm
T1 construct: comprises a MBP-fused synoviolin that lacks the transmembrane segment (TM) (synoviolin dTM); made in house; host or cells: Escherichia coli
T1 sequence (Q86TM6 246-617 limits assumed): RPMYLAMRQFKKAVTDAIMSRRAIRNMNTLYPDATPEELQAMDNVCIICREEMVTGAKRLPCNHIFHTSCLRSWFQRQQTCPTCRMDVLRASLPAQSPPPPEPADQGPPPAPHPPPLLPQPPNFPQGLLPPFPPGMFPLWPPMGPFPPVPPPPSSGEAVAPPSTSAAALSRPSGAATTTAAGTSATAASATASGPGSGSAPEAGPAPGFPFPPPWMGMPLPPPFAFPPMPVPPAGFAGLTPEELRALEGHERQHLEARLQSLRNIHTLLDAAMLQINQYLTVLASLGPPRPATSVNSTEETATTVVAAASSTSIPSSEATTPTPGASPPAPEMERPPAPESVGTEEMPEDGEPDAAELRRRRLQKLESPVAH
Protocol: A 96-well ELISA plate was adsorbed with an anti-GST antibody at 4° C. overnight and then blocked with 5% BSA/PBS solution at room temperature until it was used. The plate was washed twice before use with 300 μL of PBS containing 0.3% BSA (PBSA).
A standard reaction mixture comprising 80 ng MBP-synoviolin-His, 40 ng GST-P4HA1, 15 ng E1, 200 ng His-E2, 5 mM MgCl2, 2 mMATP, 1 mM DTT, 0.1% BSA, 0.3% DMSO, and a test compound in 30 μL of 50 mM HEPES (pH 7.5) solution was prepared in a reaction tube. After a 30 minute reaction at room temperature, 70 μL of a solution containing 70 mM EDTA and 50 mM HEPES was added to terminate the reaction. This (30 μl) was added to a plate previously containing 70 μL PBSA and incubated at room temperature for 1 hour. After washing three times with 300 μL of PBSA, 100 μL of a mouse anti-ubiquitin antibody solution diluted 1:5000 in PBSA was added, and the mixture was incubated at room temperature for 1 hour. After three washes with 300 μL of PBSA, 100 μL of a peroxidase-labeled anti-mouse IgG solution diluted 1:10000 in PBSA was added, and the mixture was incubated at room temperature for 1 hour. […] When a sufficient coloration was observed, 1 M phosphoric acid was added to terminate the reaction, and the optical density at 450 nm was measured.

[2] = biological target: T1, synoviolin activity of ubiquitinating P4HA1; assay: Inhibition of ubiquitination activity using energy transfer of XL665-Eu(K) (HTRF method); type: biochemical; settings: Eu(K)-labeled ubiquitin, GST-P4HA1 substrate, compared with binding inhibition
Protocol: A method of high-throughput screening (HTS) for compounds that inhibit the synoviolin activity of ubiquitinating P4HA1 was investigated. A system was designed in which ubiquitination by Eu(K)-labeled ubiquitin was conducted using P4HA1 expressed as a GST-fused protein as a substrate. When P4HA1 underwent Eu(K)-labeled ubiquitination, energy transfer occurred between an XL665-labeled anti-GST antibody and an Eu(K)-labeled ubiquitin, and fluorescence was detected.
A standard reaction mixture comprising 60 ng MBP-synoviolin-His, 15 ng GST-P4HA1, 15 ng E1 (Boston Biochem), 200 ng His-E2, 6.25 nM Eu(K)-labeled ubiquitin (CIS bio international), 5 mM MgCl2, 2 mM ATP, 1 mM DTT, 0.1% BSA, 0.3% DMSO, and a test compound in 15 μL of a 20 mM HEPES (pH 7.5) solution was prepared using a 384-well plate. After a 30 minute reaction at 37° C., 5 μL of 0.5 M EDTA was added to terminate the reaction. To this was added 5 μL of 20 mM HEPES solution containing an XL665-labeled […] antibody (0.025 μg) and 1 M K, and the mixture was left to stand overnight at room temperature, and the fluorescence was measured using RUBYstar™.

Sequence: DNVCIICREEMVTGAKRLDCN [SEQ ID NO: 5]
- IC50 of inhibition of the ubiquitination of P4HA1 [1]: 55 µg/mL
- concentration inhibiting the ubiquitination of P4HA1, relative to that for inhibition of the binding [2]: 20 times lower
